This assay has as its target dynein light intermediate chain 2 (LIC2). The assay can be described thus: anti-HA IP of LIC2-HA, GFP blot. The conditions noted are these: reference: GFP-WT OCLN; sites S490.

The substance “occludin (OCLN) (from UniProt Q16625) GFP-S490A” gave an other: reduction vs WT of 25%.
“occludin (OCLN) (from UniProt Q16625) GFP-S490D” yielded an other: reduction vs WT of 25%.

The values are drawn from publication doi:10.1101/2025.06.12.659326.
